Test results: patent publication US20110123511

How the values were obtained:
[1] = test system: core histone H2A
[2] = test system: core histone H4
[3] = test system: GST-fusion histone H3 peptide (residues 1-57), K27R mutant [GST: P08515]
[4] = test system: H3 peptide previously di-methylated at K27
[5] = test system: core histone H2B
[6] = test system: peptide containing H3 residues 1-20
[7] = test system: GST-fusion histone H3 peptide (residues 1-57), wild-type
[8] = test system: H3 peptide containing residues 15-30
[9] = test system: H3 peptide phosphorylated at S28
[10] = test system: full-length free histone H3 (individual core histone)

For SET protein from chlorella virus NY-2B, the histone methyltransferase activity [1] was “the SET proteins from these 3 viruses selectively methylate H3 (data not shown)”, the histone methyltransferase activity [2] was “the SET proteins from these 3 viruses selectively methylate H3 (data not shown)” and the “HMT activity on GST-histone H3 (residues 1-57)” value (“HMT activity on GST-histone H3” for short) [3] was “these viral SET proteins had robust methylation activity on wild-type H3 but little or diminished activity on the K27R mutant”. For the same substance, the “methylation activity with H3 peptides (14C-methyl-SAM)” value (“methylation activity with H3 peptides” below) [4] was “They showed little methyltransferase activity if the H3 peptide was previously di-methylated at K27 or phosphorylated at S28”, the histone methyltransferase activity [5] was “the SET proteins from these 3 viruses selectively methylate H3 (data not shown)” and the “methylation activity with H3 peptides” value [6] was “these viral SET proteins only methylated a H3 peptide containing residues 15-30 but not a peptide containing H3 residues 1-20”. For the same substance, the “HMT activity on GST-histone H3” value [7] was “these viral SET proteins had robust methylation activity on wild-type H3 but little or diminished activity on the K27R mutant”, the “methylation activity with H3 peptides” value [8] was “these viral SET proteins only methylated a H3 peptide containing residues 15-30 but not a peptide containing H3 residues 1-20” and the “methylation activity with H3 peptides” value [9] was “They showed little methyltransferase activity if the H3 peptide was previously di-methylated at K27 or phosphorylated at S28”. For the same substance, the histone methyltransferase activity [10] was “the SET proteins from these 3 viruses selectively methylate H3 (data not shown)”.

In the case of SET protein from chlorella virus NY-2A, the histone methyltransferase activity [1] is reported as “the SET proteins from these 3 viruses selectively methylate H3 (data not shown)”, the histone methyltransferase activity [2] is reported as “the SET proteins from these 3 viruses selectively methylate H3 (data not shown)” and the “HMT activity on GST-histone H3” value [3] is reported as “these viral SET proteins had robust methylation activity on wild-type H3 but little or diminished activity on the K27R mutant”. The “methylation activity with H3 peptides” value [4] was “They showed little methyltransferase activity if the H3 peptide was previously di-methylated at K27 or phosphorylated at S28”, the histone methyltransferase activity [5] was “the SET proteins from these 3 viruses selectively methylate H3 (data not shown)” and the “methylation activity with H3 peptides” value [6] was “these viral SET proteins only methylated a H3 peptide containing residues 15-30 but not a peptide containing H3 residues 1-20”. The “HMT activity on GST-histone H3” value [7] was “these viral SET proteins had robust methylation activity on wild-type H3 but little or diminished activity on the K27R mutant”, the “methylation activity with H3 peptides” value [8] was “these viral SET proteins only methylated a H3 peptide containing residues 15-30 but not a peptide containing H3 residues 1-20” and the “methylation activity with H3 peptides” value [9] was “They showed little methyltransferase activity if the H3 peptide was previously di-methylated at K27 or phosphorylated at S28”. For the same substance, the histone methyltransferase activity [10] was “the SET proteins from these 3 viruses selectively methylate H3 (data not shown)”.

In the case of SET protein from chlorella virus MA-1D, the histone methyltransferase activity [1] is reported as “the SET proteins from these 3 viruses selectively methylate H3 (data not shown)”, the histone methyltransferase activity [2] is reported as “the SET proteins from these 3 viruses selectively methylate H3 (data not shown)” and the “HMT activity on GST-histone H3” value [3] is reported as “these viral SET proteins had robust methylation activity on wild-type H3 but little or diminished activity on the K27R mutant”. The “methylation activity with H3 peptides” value [4] was “They showed little methyltransferase activity if the H3 peptide was previously di-methylated at K27 or phosphorylated at S28”, the histone methyltransferase activity [5] was “the SET proteins from these 3 viruses selectively methylate H3 (data not shown)” and the “methylation activity with H3 peptides” value [6] was “these viral SET proteins only methylated a H3 peptide containing residues 15-30 but not a peptide containing H3 residues 1-20”. For the same substance, the “HMT activity on GST-histone H3” value [7] was “these viral SET proteins had robust methylation activity on wild-type H3 but little or diminished activity on the K27R mutant”, the “methylation activity with H3 peptides” value [8] was “these viral SET proteins only methylated a H3 peptide containing residues 15-30 but not a peptide containing H3 residues 1-20” and the “methylation activity with H3 peptides” value [9] was “They showed little methyltransferase activity if the H3 peptide was previously di-methylated at K27 or phosphorylated at S28”. For the same substance, the histone methyltransferase activity [10] was “the SET proteins from these 3 viruses selectively methylate H3 (data not shown)”.
